# Results reported in patent US20200071687.
# T1: RNase A, P61823
# T1 chain: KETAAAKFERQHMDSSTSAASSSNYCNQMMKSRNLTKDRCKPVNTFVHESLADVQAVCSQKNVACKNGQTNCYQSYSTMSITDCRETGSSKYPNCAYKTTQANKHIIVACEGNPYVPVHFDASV
# B1: Subtilisin Carlsberg variant B24 (protein)
# chain: AQTVPYGIPLIKADKVQAQGFKNVKVAVLDTGIQASHPDLNVVGGASFVAGEAYNTDGNGHGTHVAGTVAALGNTTGVLGVAPSVSLYAVKVLNSSGSGSYSGIVSGIEWATTNGMDVINMSLGGASGSTAMKQAVDNAYAKGVVVVAAGNSGSSGNTNTIGYPAKYDSVIAVGAVDSNSNRASFSSVGAELEVMAPGAGYSTYPTNTYATLNGTSMASPHVAGAAALIMSKHPNLSASQVRNRLSSTATYLGSSFYYGKGLINVEAAAPHHHHH
# B2: proteinase K (protein)
# chain: AAQTNAPWGLARISSTSPGTSTYYYDESAGQGSCVYVIDTGIEASHPEFEGRAQMVKTYYYSSRDGNGHGTHCAGTVGSRTYGVAKKTQLFGVKVLDDNGSGQYSTIIAGMDFVASDKNNRNCPKGVVASLSLGGGYSSSVNSAAARLQSSGVMVAVAAGNNNADARNYSPASEPSVCTVGASDRYDRRSSFSNYGSVLDIFGPGTSILSTWIGGSTRSISGTSMATPHVAGLAAYLMTLGKTTAASACRYIADTANKGDLSNIPFGTVNLLAYNNYQA
# Legend:
# [1] = target: restriction enzyme Ase I
# [2] = target: T1, RNase A, P61823
# [3] = target: catalase
Protein,"digestion of Ase I, 1 hour at 37° C. (SDS-PAGE, Coomassie) [1]","degradation of RNaseA, 1 hour at 37° C. (SDS-PAGE, Coomassie) [2]","digestion of the substrate protein in the presence of detergents (SDS-PAGE, Coomassie) [2]","digestion of the substrate protein in the presence of detergents (SDS-PAGE, Coomassie) [3]"
B1,subtilisin B24 variant can digest Ase I in one hour at 37 °C,both the subtilisin B24 variant and proteinase K can degrade RNaseA,can digest catalase (FIG. 11A) and RNAase (FIG. 11B) up to at least a 2.0% SDS concentration; catalase (FIG. 11C) and RNAase (FIG. 11D) up to at least a 2.0% Triton X-100 concentration; and RNAase (FIG. 11E) up to at least a 2% CTAB concentration,can digest catalase (FIG. 11A) and RNAase (FIG. 11B) up to at least a 2.0% SDS concentration; catalase (FIG. 11C) and RNAase (FIG. 11D) up to at least a 2.0% Triton X-100 concentration
B2,while Proteinase K cannot,both the subtilisin B24 variant and proteinase K can degrade RNaseA,,
